Laboratory results: the Human Domainome abundance scans (Beltran et al. 2025)
± gives the uncertainty stated by the source.

B1: Protein S100-G, residues 1 to 79; numbered along this chain, P02633 (parent)
chain: MSAKKSPEELKGIFEKYAAKEGDPNQLSKEELKLLLQTEFPSLLKGPSTLDELFEELDKNGDGEVSFEEFQVLVKKISQ

Variants of: B1
Assay: abundance fitness (aPCA) (normalised: wild type 0, dead -1); higher = more abundant; growth selection in yeast, the domain comes from the species named
Details: Bos taurus

Abundance fitness, by site and new letter:
L73: G -0.041 ± 0.078; E -0.247 ± 0.099; D -0.668 ± 0.1; C 0.065 ± 0.11; I -0.016 ± 0.082; H -0.151 ± 0.085; F -0.124 ± 0.089; A -0.112 ± 0.072
V65: Q -0.165 ± 0.077; F -0.002 ± 0.083; I 0.007 ± 0.088; T 0.037 ± 0.067; S -0.109 ± 0.061; K -0.171 ± 0.081; C -0.05 ± 0.078; N -0.2 ± 0.094; G -0.37 ± 0.071; D -0.86 ± 0.11; R -0.165 ± 0.064; M 0.025 ± 0.078; A -0.091 ± 0.07; L 0.044 ± 0.059; W -0.018 ± 0.074; P -0.34 ± 0.073
F67: C -0.05 ± 0.079; M -0.176 ± 0.072; K -0.172 ± 0.075; G -0.175 ± 0.063; H -0.12 ± 0.094; P -0.257 ± 0.077; Y -0.022 ± 0.087; T -0.201 ± 0.07; R -0.141 ± 0.06; L -0.059 ± 0.06; Q 0.04 ± 0.079; W -0.038 ± 0.071; S -0.097 ± 0.065; N -0.131 ± 0.086; A -0.123 ± 0.067; E -0.063 ± 0.077; D -0.294 ± 0.084; I -0.161 ± 0.084; V -0.059 ± 0.061
Q71: F -0.107 ± 0.085; W -0.244 ± 0.092; N -0.06 ± 0.082; Y -0.168 ± 0.087; T -0.031 ± 0.072; P -0.25 ± 0.072; V -0.058 ± 0.073; M -0.032 ± 0.088; K -0.074 ± 0.097; R -0.091 ± 0.071; S 0.017 ± 0.066; D -0.038 ± 0.087; C -0.101 ± 0.089; E 0.068 ± 0.098; G 0.009 ± 0.08; H -0.029 ± 0.078; I -0.054 ± 0.077; A -0.031 ± 0.073; L 0.031 ± 0.064
E68: C -0.073 ± 0.079; T -0.012 ± 0.062; Q -0.099 ± 0.078; R -0.046 ± 0.061; D -0.005 ± 0.083; N -0.047 ± 0.071; G -0.06 ± 0.067; Y -0.216 ± 0.076; A -0.016 ± 0.064; L -0.098 ± 0.057; P 0.009 ± 0.067; M -0.044 ± 0.075; K 0.018 ± 0.075; F -0.062 ± 0.074; H -0.001 ± 0.074
V72: P -0.018 ± 0.078; F -0.032 ± 0.082; K 0.022 ± 0.085; H -0.029 ± 0.082; A -0.034 ± 0.081; T 0.053 ± 0.079; N -0.012 ± 0.092; E -0.092 ± 0.1; Q -0.059 ± 0.082; M -0.035 ± 0.082; S -0.043 ± 0.066; I -0.022 ± 0.083; G 0.038 ± 0.077; L -0.004 ± 0.063; D -0.068 ± 0.1; Y -0.059 ± 0.087
S66: K -0.066 ± 0.077; Y -0.086 ± 0.079; V 0 ± 0.067; F -0.124 ± 0.084; C 0.053 ± 0.086; W -0.382 ± 0.088; H -0.146 ± 0.083; G 0.033 ± 0.068; A -0.009 ± 0.065; I -0.101 ± 0.088; L -0.137 ± 0.064; Q -0.101 ± 0.083; M 0.008 ± 0.085; R -0.036 ± 0.063; T 0.029 ± 0.07; N 0.014 ± 0.078; E 0.048 ± 0.083; P -0.107 ± 0.074
E64: H 0.048 ± 0.079; L -0.055 ± 0.06; G 0.059 ± 0.076; N -0.026 ± 0.12; A 0.01 ± 0.07; P 0.008 ± 0.077; F -0.055 ± 0.085; Y -0.049 ± 0.08; W 0.155 ± 0.077; T 0.073 ± 0.097; I -0.101 ± 0.09; Q 0.081 ± 0.078; V -0.065 ± 0.067; K -0.028 ± 0.1; D 0.049 ± 0.083; M 0.035 ± 0.096; S 0.002 ± 0.065; C 0.032 ± 0.08
G63: V -0.079 ± 0.07; Y 0.002 ± 0.12
E69: F -0.215 ± 0.1; I -0.055 ± 0.094; S -0.07 ± 0.068; M 0.022 ± 0.091; C -0.074 ± 0.084; V -0.021 ± 0.083; N -0.215 ± 0.1; T -0.013 ± 0.077; W -0.253 ± 0.085; A -0.04 ± 0.08; Q 0.016 ± 0.08; L -0.006 ± 0.061; H -0.007 ± 0.079; R -0.056 ± 0.07; K -0.016 ± 0.099; G 0.06 ± 0.086; D 0.009 ± 0.11
F70: I -0.534 ± 0.082; L -0.157 ± 0.061; N -1.25 ± 0.093; R -0.797 ± 0.066; M -0.105 ± 0.084; E -1.25 ± 0.11; K -0.965 ± 0.09; H -1 ± 0.083; W -0.115 ± 0.082; G -0.73 ± 0.079; D -1.14 ± 0.11; Q -1.01 ± 0.085; Y -0.039 ± 0.076; S -0.531 ± 0.064; V -0.165 ± 0.07; C -0.169 ± 0.099; T -0.162 ± 0.07; A -0.157 ± 0.072; P -0.94 ± 0.077
